According to patent US12404345B2, “Humanized antibodies against iRHOM2” (SCIRHOM GMBH, priority 2021, dated 2025):

Molecular target: T1, human iRhom2 (Homo sapiens, UniProt Q6PJF5)
T1 construct: MEF-DKO-hiR2-FL-WT-T7 cells stably expressing human iRhom2 full length wild type; expressed in transfected cells; host or cells: immortalized iRhom1/2-/- double knockout mouse embryonic fibroblasts, pMSCV retroviral infection
T1 sequence (Q6PJF5 1-856): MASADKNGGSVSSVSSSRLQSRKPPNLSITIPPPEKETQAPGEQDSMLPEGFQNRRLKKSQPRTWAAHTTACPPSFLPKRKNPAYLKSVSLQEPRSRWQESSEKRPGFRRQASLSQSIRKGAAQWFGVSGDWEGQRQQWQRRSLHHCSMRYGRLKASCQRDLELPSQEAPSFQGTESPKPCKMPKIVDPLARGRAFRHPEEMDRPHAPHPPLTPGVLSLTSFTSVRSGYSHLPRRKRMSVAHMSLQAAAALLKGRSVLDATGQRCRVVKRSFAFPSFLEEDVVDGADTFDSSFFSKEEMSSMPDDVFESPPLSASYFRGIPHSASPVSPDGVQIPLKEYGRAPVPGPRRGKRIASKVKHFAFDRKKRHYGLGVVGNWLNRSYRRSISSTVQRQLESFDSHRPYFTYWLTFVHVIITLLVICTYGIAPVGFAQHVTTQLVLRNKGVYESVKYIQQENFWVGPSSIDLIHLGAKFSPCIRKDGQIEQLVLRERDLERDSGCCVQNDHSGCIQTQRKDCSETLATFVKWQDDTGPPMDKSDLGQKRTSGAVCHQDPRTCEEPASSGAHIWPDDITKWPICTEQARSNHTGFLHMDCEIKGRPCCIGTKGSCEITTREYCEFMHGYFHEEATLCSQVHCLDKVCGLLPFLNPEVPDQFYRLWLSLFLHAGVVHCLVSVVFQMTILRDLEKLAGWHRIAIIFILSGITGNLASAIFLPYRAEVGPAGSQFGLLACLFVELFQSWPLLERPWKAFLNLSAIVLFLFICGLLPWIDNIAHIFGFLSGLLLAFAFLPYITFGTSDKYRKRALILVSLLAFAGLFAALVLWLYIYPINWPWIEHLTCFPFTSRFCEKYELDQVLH
Assay: FACS binding to MEF-DKO-hiR2-FL-WT-T7 cells
Conditions: antibody at 3 μg/ml
Source text: Next, immortalized iRhom1/2−/− DKO MEFs were reconstituted with a tagged form of human iRhom2 to test target recognition of humanized antibodies of the invention. Additionally, iRhom1/2−/− DKO MEFs stably expressing a tagged form of mouse iRhom2 were generated in order to determine cross-reactivity of the humanized antibodies 16-B-03, 16-B-05, 16-B-07, 23-B-04, 42-B-02 and 42-B-04 of the invention with the mouse orthologue of iRhom2.
In brief, on day 1, Phoenix-ECO cells (American Type Culture Collection, USA) were seeded on 6-well tissue culture plates (Greiner, Germany) in standard growth medium at 8×10^5 cells per well and kept overnight at 37° C., 5% CO2. On day 2, the medium was replaced by fresh medium supplemented with chloroquine (Sigma-Aldrich, USA) at a final concentration of 25 μM. Applying the calcium phosphate method, cells were transfected with 2 μg/ml of pMSCV (Clontech, USA) empty vector, pMSCV-hiR2-FL-WT-T7 encoding human iRhom2 full length wild type C-terminally tagged with 3 consecutive copies of the T7 epitope (MASMTGGQQMG) or pMSCV-miR2-FL-WT-T7 encoding mouse iRhom2 full length wild type C-terminally tagged with 3 consecutive copies of the T7 epitope, and were kept at 37° C., 5% CO2. […]

B1: 16-B-03: humanized antibody binding human iRhom2; HCVD SEQ ID NO 1, LCVD SEQ ID NO 5 (antibody, V domains shown)
VH: QVTLRESGPALVKPTQTLTLTCTFSGFSLSTFALGVGWIRQPPGKALEWLAHIWWDDDKYYNPALKSRLTISKDTSKNQVVLTITNMDPVDTATYYCARITTYYYGMDYWGQGTLVTVSS
VL: EIVMTQSPDFQSVTPKEKVTITCRASQSIGNHLHWYQQKPDASPKLLIKYASQSISGVPSRFSGSGSGTDFTLTINSLEAEDAATYFCQQSYQWPLTFGQGTKLEIK
modifications: antibody sequences
  binding to the human iRhom2 variant on MEF-DKO-hiR2-FL-WT-T7 cells: strong binding
